B1: wild type p16-GFP [not stated] / CDK4 (Cyclin-dependent protein kinase), endogenous in 293T cells [human (endogenous in 293T)] (parent)
chain 1: MEPAAGSSMEPSADWLATAAARGRVEEVRALLEAGALPNAPNSYGRRPIQVMMMGSARVAELLLLHGAEPNCADPATLTRPVHDAAREGFLDTLVVLHRAGARLDVRDAWGRLPVDLAEELGHRDVARYLRAAAGGTRGSNHARIDAAEGPSDIPD
chain 2: MATSRYEPVAEIGVGAYGTVYKARDPHSGHFVALKSVRVPNGGGGGGGLPISTVREVALLRRLEAFEHPNVVRLMDVCATSRTDREIKVTLVFEHVDQDLRTYLDKAPPPGLPAETIKDLMRQFLRGLDFLHANCIVHRDLKPENILVTSGGTVKLADFGLARIYSYQMALTPVVVTLWYRAPEVLLQSTYATPVDMWSVGCIFAEMFRRKPLFCGNSEADQLGKIFDLIGLPPEDDWPRDVSLPRGAFPPRGPRPVQSVVPEMEESGAQLLLEMLTFNPHKRISAFRALQHSYLHKDEGNPE

In this experiment the parent is B1. The experiment in a line: co-immunoprecipitation (anti-GFP IP, anti-CDK4 immunoblot, photodensitometry). The note with it: with CDK4 (Cyclin-dependent protein kinase), scale: relative intensity. On the technique in general: Immunoblotting shows a protein as a band on a membrane.
[1] abbreviates: 1 mM H2O2 for 24 h, read off a plot.

As for chain 1 S140A, the response under setting [1] came to 0.92 and the response (no H2O2, read off a plot) was 0.85.
For chain 1 S152A, in that order: 1.7 and 1.1.
The corresponding values for chain 1 S8A are 1.4 and 0.92.

For the origin of these results see paper PMC5264599.
